T1: MBP–FlaA (C. jejuni flagellin FlaA, amino acids 177–482) (Campylobacter jejuni, flagellin A …, biotinylated (EZ-Link NGS-PEG4-Biotin kit) in the BLI)
T1 construct: The biotinylated form was used for BLI; The ELISA methods name the coating protein only as recombinant FlaA; also called recombinant FlaA; recombinant C. jejuni flagellin; source: E. coli BL-21(DE3), purified (Amylose Resin); not shown: MBP, N-terminal, kept
T1 chain: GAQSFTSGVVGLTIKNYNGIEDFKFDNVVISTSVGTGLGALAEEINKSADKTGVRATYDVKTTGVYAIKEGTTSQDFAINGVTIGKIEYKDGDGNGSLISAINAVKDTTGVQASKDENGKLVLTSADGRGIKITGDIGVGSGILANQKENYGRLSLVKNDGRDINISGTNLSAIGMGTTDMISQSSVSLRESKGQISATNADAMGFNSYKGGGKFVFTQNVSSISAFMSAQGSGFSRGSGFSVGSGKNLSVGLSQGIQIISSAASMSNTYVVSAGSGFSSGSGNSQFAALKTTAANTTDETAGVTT

B1: aa682 (VHH)
VHH: QVQLVESGGGLVQAGGSLRVSCTASVSTFSINALGWYRQAPGKARELVAAIGSDGTVYYTDSVKGRFTISRDNAKNTVSLQMSSLKPEDTAVYYCNAAGKRIGSDGSIWFAVASFGSWGQGTQVTVSS
notes: N-terminal methionine removed (intact mass); Monovalent VHH-MBP fusion, predicted MW 54.8 kDa
B2: PP622, monomeric RBD-binding VHH (VHH-72), E. coli-expressed and purified (VHH)
VHH: QVQLQESGGGLVQAGGSLRLSCAASGRTFSEYAMGWFRQAPGKEREFVATISWSGGSTYYTRSVKGRFTISRDNAKNTVYLQMNSLKPDDTAVYYCAAAGLGTVVSEWDYDYDYWGQGTQVTVSS
notes: also called monomeric VHH; source: E. coli, purified (IMAC)
B3: PP661, dimeric RBD-binding VHH (VHH-72 on the 5HVZ scaffold), E. coli-expressed and purified (VHH)
VHH: QVQLQESGGGLVQAGGSLRLSCAASGRTFSEYAMGWFRQAPGKEREFVATISWSGGSTYYTRSVKGRFTISRDNAKNTVYLQMNSLKPDDTAVYYCAAAGLGTVVSEWDYDYDYWGQGTQVTVSS
notes: also called dimeric VHH; source: E. coli, purified (IMAC)
B4: monomeric RBD-binding VHH (VHH-72) in extract of spirulina strain SP1464 (VHH)
VHH: QVQLQESGGGLVQAGGSLRLSCAASGRTFSEYAMGWFRQAPGKEREFVATISWSGGSTYYTRSVKGRFTISRDNAKNTVYLQMNSLKPDDTAVYYCAAAGLGTVVSEWDYDYDYWGQGTQVTVSS
notes: also called monomeric VHH, extract; source: spirulina strain SP1464, in extract
B5: dimeric RBD-binding VHH (VHH-72 on the 5HVZ scaffold) in extract of spirulina strain SP1477 (VHH)
VHH: QVQLQESGGGLVQAGGSLRLSCAASGRTFSEYAMGWFRQAPGKEREFVATISWSGGSTYYTRSVKGRFTISRDNAKNTVYLQMNSLKPDDTAVYYCAAAGLGTVVSEWDYDYDYWGQGTQVTVSS
notes: as the dimerization motif of m5, named only by its PDB entry 5HVZ; also called dimeric VHH, extracted form; source: spirulina strain SP1477, in extract

Legend:
[1] = biological target: T1, MBP–FlaA (C. jejuni flagellin FlaA, …); test: BLI; Octet Red96e; biotinylated MBP–FlaA loaded at 100 nM on streptavidin biosensors; purified aa682 from 1 μM to 10 nM in PBS with 1% BSA and 0.05% Tween-20; association 20 s, dissociation 140 s; global fit, 1:1 model; settings: both partners purified
[2] = biological target: T2, RBD antigen (SARS-CoV-2 receptor-binding domain) (SARS-CoV-2, variant  …, UniProt P0DTC2); test: ELISA
T2 construct: source: provided by R. Strong (Fred Hutchinson Cancer Institute)

Binder	EC50 ([2]; both partners purified) [nM]	EC50 ([2]; one partner purified) [nM]	other results
B1			Kd [1]: 53 nM
B2	18.3		
B3	0.32		
B4		52.3	
B5		1.29	
